Laboratory results as given in US20240003880A1 (published 2024).

B1: antibody 9-24 (antibody, V domains shown)
VH: EVQLVESGGGLVQPGGSLRLSCAASGFTFSDSAVHWVRQASGKGLEWVGRIRNRNNNYATAYAASVKGRFTISRDDSENMAYLQMNGLKTEDTAIYYCTDLLAYWGQGTLLTVSS
VL: SYELTQPPSVSVSPGQTARITCSADALPKQYAYWYQQKAGQAPVLVIYKDNERPSGIPERFSGSSSGTTVTLTISGVQAEDEADYYCQSADSSGGYRVFGGGTKLTVL
B2: antibody 9-17 (antibody, V domains shown)
VH: QVQLVQSGAEVKKPGSSVKVSCKASGGTFSNYVISWVRQAPGQGLEWMGGIIPIFGTAKYAQKFQGRVAITADESTSTAYMEVSSLRSEDTAVYYCARAGYCSGGSCRRPSDYYGMDVWGQGTTVTVSS
VL: not shown
B3: antibody 9-11 (antibody, V domains shown)
VH: QVQLVQSGAEVKKPGASVKVSCKASGYTFTSYAISWVRQAPGQGLEWMGWISAYTGNTNYAQKLQGRVTMTTDTSTSTAYMELRSLRSDDTAVYYCARNGWDYDTSGTHDYWGQGTLVTVSS
VL: not shown
B4: antibody 9-15 (antibody, V domains shown)
VH: QVQLVQSGAEVKKPGSSVKVSCKASGGTFSSYAISWVRQAPGQGLEWMGGIIPIFGTANYAQKFQGRVTITAEESTSTAYMELSSLRSEDTAVYYCARDGWAAAGPDTSLLGTFDIWGQGTMVTVSS
VL: QSALTQPPSVSGSPGQSVTISCTGTSSDVGSYNRVSWYQQPPGTAPKLIIYEVSNRPSGVPDRFSGSKSGNTASLTISGLQAEDEADYYCSSYTSSSTYVVFGGGTKLTVL

Each binder was assayed against SARS-CoV-2 nucleocapsid phosphoprotein (SARS-CoV-2, UniProt P0DTC9 1-419) (assay: SPR).

| Binder | Kd |
| --- | --- |
| B1 | 2.36 nM |
| B2 | 0.18 nM |
| B3 | 0.08 nM |
| B4 | 0.1 nM |
